Legend:
AncSZ = assay: phosphorylation enrichment, bacterial display (enrichment ratio); higher = better substrate or ligand; peptides without Tyr show the background
EPHB1 = EPHB1 (UniProt P54762); assay: as above
EPHB2 = EPHB2 (UniProt P29323); assay: as above
FGFR1 = FGFR1 (UniProt P11362); assay: as above
FGFR3 = FGFR3 (UniProt P22607); assay: as above
Fer (mouse) = assay: as above
Fes = Fes (UniProt P07332); assay: as above
Fyn = Fyn (UniProt P06241); assay: as above
Hck = Hck (UniProt P08631); assay: as above
Jak2 = Jak2 (UniProt O60674); assay: as above
MERTK = MERTK (UniProt Q12866); assay: as above
c-Abl (mouse) = assay: as above
c-Src = assay: as above
Grb2 SH2 = Grb2 SH2 (UniProt P62993); assay: SH2 binding enrichment of the phosphorylated peptide, bacterial display (enrichment ratio); higher = better substrate or ligand; peptides without Tyr show the background
SHP2-C SH2 = assay: as above
c-Src SH2 = assay: as above
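For SH2 binding enrichment of the phosphorylated peptide, bacterial display in this document: peptide library displayed on the E. coli surface as eCPX fusions, selected cells deep-sequenced, score is each peptide's frequency after selection divided by its frequency in the input.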
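For phosphorylation enrichment, bacterial display in this document: 11-residue human phosphosite peptides and single-mutation variants displayed on the E. coli surface, counted by deep sequencing, each peptide's frequency after selection divided by its frequency in the unselected input library; frequency after pTyr selection over input frequency; kinase dosed for 20-30% of maximal phosphorylation in three min.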

Chain of EPHB2 (P29323 whole entry, looked up): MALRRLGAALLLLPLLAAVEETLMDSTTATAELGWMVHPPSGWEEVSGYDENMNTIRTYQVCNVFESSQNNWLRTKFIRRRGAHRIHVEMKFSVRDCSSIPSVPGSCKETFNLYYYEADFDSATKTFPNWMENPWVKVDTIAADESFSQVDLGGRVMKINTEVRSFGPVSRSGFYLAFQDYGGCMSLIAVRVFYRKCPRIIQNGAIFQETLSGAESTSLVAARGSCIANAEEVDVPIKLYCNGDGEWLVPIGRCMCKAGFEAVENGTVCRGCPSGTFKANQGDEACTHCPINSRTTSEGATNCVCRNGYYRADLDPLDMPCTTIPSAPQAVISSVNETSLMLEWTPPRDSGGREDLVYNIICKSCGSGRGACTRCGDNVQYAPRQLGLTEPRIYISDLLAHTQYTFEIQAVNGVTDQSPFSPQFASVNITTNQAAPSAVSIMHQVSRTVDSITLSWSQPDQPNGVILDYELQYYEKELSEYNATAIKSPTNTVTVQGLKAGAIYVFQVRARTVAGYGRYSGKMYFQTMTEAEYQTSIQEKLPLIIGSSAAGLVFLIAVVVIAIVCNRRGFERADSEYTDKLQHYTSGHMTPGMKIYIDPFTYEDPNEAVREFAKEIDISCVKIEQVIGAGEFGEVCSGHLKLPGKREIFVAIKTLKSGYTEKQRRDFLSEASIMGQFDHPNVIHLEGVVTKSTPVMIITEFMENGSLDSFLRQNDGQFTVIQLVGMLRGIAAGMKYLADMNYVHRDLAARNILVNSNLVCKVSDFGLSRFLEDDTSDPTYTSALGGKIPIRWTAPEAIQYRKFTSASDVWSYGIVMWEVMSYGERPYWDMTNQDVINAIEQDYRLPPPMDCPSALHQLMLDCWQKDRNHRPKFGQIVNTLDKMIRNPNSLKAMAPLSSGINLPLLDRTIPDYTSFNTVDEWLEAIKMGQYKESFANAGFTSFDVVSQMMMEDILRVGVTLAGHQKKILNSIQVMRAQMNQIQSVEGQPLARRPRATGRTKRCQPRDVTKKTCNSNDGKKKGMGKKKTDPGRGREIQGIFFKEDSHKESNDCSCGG
Chain of FGFR1 (P11362 whole entry, looked up): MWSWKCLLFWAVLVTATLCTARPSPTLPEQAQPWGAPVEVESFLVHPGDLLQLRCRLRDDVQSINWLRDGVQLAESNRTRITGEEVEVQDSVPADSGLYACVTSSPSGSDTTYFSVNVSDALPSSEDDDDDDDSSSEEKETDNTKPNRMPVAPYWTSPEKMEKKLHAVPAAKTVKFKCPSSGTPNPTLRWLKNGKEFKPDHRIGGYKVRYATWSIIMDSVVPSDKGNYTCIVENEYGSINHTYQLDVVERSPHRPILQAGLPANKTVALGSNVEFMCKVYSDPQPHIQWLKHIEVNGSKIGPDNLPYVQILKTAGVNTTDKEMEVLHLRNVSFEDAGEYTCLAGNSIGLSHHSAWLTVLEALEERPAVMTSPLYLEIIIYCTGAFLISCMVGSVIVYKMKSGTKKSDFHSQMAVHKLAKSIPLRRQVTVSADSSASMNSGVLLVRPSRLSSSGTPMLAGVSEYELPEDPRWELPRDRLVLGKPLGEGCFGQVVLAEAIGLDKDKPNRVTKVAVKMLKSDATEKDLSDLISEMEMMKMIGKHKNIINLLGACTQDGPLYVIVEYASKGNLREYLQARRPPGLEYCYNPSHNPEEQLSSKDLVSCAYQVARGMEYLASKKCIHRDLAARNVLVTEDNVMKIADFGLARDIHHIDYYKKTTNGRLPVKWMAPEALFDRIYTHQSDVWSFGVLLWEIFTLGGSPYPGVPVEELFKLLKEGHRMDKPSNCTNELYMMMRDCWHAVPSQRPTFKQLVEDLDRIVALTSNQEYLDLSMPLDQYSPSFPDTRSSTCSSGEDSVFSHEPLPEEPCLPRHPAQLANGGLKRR
Chain of Jak2 (O60674 whole entry, looked up): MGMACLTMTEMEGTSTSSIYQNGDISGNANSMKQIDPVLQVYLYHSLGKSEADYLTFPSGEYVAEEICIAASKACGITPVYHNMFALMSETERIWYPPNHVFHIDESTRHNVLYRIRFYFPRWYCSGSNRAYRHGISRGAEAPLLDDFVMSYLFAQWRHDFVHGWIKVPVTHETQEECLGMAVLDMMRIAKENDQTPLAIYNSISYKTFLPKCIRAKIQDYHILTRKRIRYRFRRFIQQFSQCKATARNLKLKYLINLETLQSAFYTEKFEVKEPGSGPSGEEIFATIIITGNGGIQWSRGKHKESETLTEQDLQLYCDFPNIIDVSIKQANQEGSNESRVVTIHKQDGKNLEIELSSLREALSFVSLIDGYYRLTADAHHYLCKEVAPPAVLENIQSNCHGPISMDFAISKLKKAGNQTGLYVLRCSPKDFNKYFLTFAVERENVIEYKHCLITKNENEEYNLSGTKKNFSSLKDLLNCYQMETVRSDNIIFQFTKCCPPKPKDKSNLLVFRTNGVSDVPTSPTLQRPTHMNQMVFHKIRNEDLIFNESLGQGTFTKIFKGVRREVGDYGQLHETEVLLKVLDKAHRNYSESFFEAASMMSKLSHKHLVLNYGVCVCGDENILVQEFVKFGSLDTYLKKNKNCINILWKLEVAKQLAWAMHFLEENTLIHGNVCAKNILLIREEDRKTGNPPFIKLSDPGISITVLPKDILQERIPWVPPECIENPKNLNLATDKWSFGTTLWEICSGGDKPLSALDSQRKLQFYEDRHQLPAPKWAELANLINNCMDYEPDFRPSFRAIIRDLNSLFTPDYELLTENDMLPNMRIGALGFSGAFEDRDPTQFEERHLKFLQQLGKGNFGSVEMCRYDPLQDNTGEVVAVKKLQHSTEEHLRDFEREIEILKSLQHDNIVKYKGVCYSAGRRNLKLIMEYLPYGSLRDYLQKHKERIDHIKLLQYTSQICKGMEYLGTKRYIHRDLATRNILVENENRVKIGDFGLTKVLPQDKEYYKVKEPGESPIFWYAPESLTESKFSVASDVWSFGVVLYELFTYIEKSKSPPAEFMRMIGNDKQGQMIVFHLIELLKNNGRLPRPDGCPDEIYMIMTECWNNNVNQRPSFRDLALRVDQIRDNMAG
Chain of Fyn (P06241 whole entry, looked up): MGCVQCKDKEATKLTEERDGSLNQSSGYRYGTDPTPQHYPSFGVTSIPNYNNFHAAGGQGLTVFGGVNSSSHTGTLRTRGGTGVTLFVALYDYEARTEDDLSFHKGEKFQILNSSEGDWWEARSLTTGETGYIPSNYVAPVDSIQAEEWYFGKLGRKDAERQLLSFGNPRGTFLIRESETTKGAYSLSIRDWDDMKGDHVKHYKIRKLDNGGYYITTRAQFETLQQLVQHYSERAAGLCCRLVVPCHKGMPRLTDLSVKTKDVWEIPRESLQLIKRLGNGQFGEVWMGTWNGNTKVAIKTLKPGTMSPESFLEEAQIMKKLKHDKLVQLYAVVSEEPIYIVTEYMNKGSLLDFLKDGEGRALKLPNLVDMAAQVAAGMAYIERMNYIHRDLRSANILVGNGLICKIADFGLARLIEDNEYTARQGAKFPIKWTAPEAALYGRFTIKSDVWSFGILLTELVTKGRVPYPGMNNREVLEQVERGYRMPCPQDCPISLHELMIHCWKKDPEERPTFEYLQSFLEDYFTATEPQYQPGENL
Chain of FGFR3 (P22607 whole entry, looked up): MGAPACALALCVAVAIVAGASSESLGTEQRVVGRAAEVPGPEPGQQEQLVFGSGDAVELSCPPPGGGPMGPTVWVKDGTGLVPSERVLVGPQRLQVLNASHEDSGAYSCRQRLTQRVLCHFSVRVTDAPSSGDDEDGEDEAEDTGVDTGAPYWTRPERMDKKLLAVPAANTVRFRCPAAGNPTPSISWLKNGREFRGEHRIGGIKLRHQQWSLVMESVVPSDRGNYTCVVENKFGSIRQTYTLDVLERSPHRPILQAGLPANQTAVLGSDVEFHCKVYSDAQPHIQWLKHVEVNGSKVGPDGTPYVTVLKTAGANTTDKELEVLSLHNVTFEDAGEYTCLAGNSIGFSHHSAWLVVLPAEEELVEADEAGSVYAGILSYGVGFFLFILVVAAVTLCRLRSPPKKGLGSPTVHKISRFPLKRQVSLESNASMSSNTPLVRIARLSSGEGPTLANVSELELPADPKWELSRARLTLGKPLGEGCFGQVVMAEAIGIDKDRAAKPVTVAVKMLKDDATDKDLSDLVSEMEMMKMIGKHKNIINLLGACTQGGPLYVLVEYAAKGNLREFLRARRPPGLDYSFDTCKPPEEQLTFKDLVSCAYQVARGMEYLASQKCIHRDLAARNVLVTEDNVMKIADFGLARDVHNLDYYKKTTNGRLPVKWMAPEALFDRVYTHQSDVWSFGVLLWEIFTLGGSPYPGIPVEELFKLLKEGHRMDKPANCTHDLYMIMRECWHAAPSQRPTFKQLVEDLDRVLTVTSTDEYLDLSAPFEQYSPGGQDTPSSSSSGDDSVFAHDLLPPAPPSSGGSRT
Chain of Grb2 SH2 (P62993 whole entry, looked up): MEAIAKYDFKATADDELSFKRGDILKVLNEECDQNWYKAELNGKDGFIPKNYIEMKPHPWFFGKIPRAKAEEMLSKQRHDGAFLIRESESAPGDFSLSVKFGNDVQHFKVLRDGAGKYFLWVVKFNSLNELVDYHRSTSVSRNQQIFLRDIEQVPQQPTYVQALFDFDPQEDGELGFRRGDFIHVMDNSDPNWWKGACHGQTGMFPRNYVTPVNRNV

| Sequence | phosphorylation enrichment (AncSZ) | phosphorylation enrichment (EPHB1) | phosphorylation enrichment (EPHB2) | phosphorylation enrichment (FGFR1) | phosphorylation enrichment (FGFR3) | phosphorylation enrichment (Fer (mouse)) | phosphorylation enrichment (Fes) | phosphorylation enrichment (Fyn) | phosphorylation enrichment (Hck) | phosphorylation enrichment (Jak2) | phosphorylation enrichment (MERTK) | phosphorylation enrichment (c-Abl (mouse)) | phosphorylation enrichment (c-Src) | SH2 binding enrichment (Grb2 SH2) | SH2 binding enrichment (SHP2-C SH2) | SH2 binding enrichment (c-Src SH2) |
| --- | --- | --- | --- | --- | --- | --- | --- | --- | --- | --- | --- | --- | --- | --- | --- | --- |
| KILAKYSLETS [NAMPT_Y175_L176S] | 0.537 | 0.335 | 0.409 | 0.442 | 0.456 | 0.377 | 0.58 | 0.354 | 0.437 | 0.503 | 0.256 | 0.476 | 0.301 | 0.871 | 0.529 | 0.388 |
| ELQDDYEDMME [SLC4A1_Y8] | 1.16 | 0.646 | 0.558 | 0.566 | 0.718 | 0.549 | 1.07 | 0.542 | 0.659 | 0.956 | 0.451 | 0.56 | 0.415 | 0.907 | 0.665 | 0.747 |
| IRTDAYVRAMT [RPE65_Y89] | 0.515 | 0.438 | 0.458 | 0.444 | 0.482 | 0.398 | 0.605 | 0.463 | 0.414 | 0.481 | 0.402 | 0.522 | 0.382 | 0.761 | 0.527 | 0.467 |
| RLLVVYPGTQR [HBB_Y36_W38G] | 0.918 | 0.539 | 0.683 | 0.544 | 0.703 | 0.42 | 0.984 | 0.484 | 0.526 | 0.836 | 0.512 | 0.739 | 0.48 | 1.48 | 1.27 | 1.05 |
| GGPAGYLWRAS [PKLR_Y38_R40W] | 0.683 | 0.454 | 0.439 | 0.413 | 0.505 | 0.392 | 0.941 | 0.384 | 0.371 | 0.601 | 0.392 | 0.529 | 0.344 | 0.981 | 0.729 | 0.594 |
| FLELNYKEDEF [MME_Y502_YF] | 1.34 | 0.612 | 0.569 | 0.565 | 0.633 | 0.524 | 1.05 | 0.461 | 0.552 | 0.848 | 0.344 | 0.589 | 0.349 | 0.856 | 0.773 | 0.585 |
| KGEDFYCVTCH [FHL1_Y149] | 1.09 | 0.696 | 0.569 | 0.579 | 0.775 | 0.504 | 1.12 | 0.797 | 0.801 | 0.933 | 0.597 | 0.675 | 0.613 | 1.19 | 0.842 | 0.962 |
| SRGLAYPARSA [LEMD2_Y122_P126S] | 0.501 | 0.244 | 0.334 | 0.288 | 0.275 | 0.381 | 0.529 | 0.316 | 0.25 | 0.312 | 0.35 | 0.382 | 0.431 | 0.723 | 0.596 | 0.552 |
| RTVDVYFGPRM [KIRREL3_Y332] | 1.15 | 0.643 | 1.33 | 0.758 | 1.23 | 0.711 | 1.14 | 1.06 | 1.5 | 0.618 | 0.591 | 0.65 | 0.72 | 0.901 | 0.593 | 0.348 |
| FPPISYLHAIS [MVD_Y276_N278H] | 0.984 | 0.434 | 0.579 | 0.602 | 0.612 | 0.545 | 1 | 0.602 | 0.565 | 0.793 | 0.544 | 0.829 | 0.608 | 0.862 | 0.657 | 0.657 |
| QSSALYEDCFL [ASS1_Y83_R86C_YF] | 1.92 | 10.4 | 7.25 | 0.852 | 0.785 | 16.4 | 2.83 | 3.02 | 2.28 | 1.96 | 4.12 | 1.15 | 4.69 | 1.13 | 0.794 | 0.831 |
| AGAIIYTSRFQ [PFAS_Y538] | 0.748 | 0.486 | 0.674 | 0.398 | 0.504 | 0.506 | 0.839 | 0.58 | 0.76 | 0.686 | 0.568 | 0.72 | 0.929 | 1.08 | 1.1 | 0.464 |
| SLGSPYGQPPC [PDLIM4_Y137_R142C] | 0.659 | 0.453 | 0.491 | 0.465 | 0.588 | 0.37 | 0.835 | 0.458 | 0.576 | 0.568 | 0.39 | 0.817 | 0.373 | 0.875 | 0.88 | 0.562 |
| KFLENYFDLEK [MMP3_Y41_K45E_YF] | 1.39 | 2.5 | 0.878 | 3.77 | 2.14 | 0.439 | 1.23 | 0.467 | 0.487 | 1.39 | 0.46 | 0.844 | 0.502 | 0.991 | 1.06 | 0.741 |
| FGDTSYIPFRD [CDC14C_Y132_P131S] | 0.659 | 0.424 | 0.533 | 0.517 | 0.496 | 0.391 | 0.672 | 0.443 | 0.443 | 0.676 | 0.452 | 0.546 | 0.518 | 0.8 | 0.599 | 0.536 |
| QKKEEYKMALF [F8_Y1990_R1985Q_YF] | 0.736 | 0.645 | 0.48 | 0.716 | 0.509 | 0.498 | 0.866 | 0.421 | 0.561 | 0.552 | 0.811 | 0.774 | 0.37 | 0.73 | 0.481 | 0.483 |
| TFACSYTPVKA [FLNB_Y708_YF] | 1.16 | 0.527 | 0.577 | 0.582 | 0.653 | 0.449 | 1.08 | 0.444 | 0.562 | 1.09 | 0.342 | 0.961 | 0.536 | 0.481 | 1.39 | 0.587 |

| Sequence | phosphorylation enrichment (AncSZ) | phosphorylation enrichment (EPHB1) | phosphorylation enrichment (EPHB2) | phosphorylation enrichment (FGFR1) | phosphorylation enrichment (FGFR3) | phosphorylation enrichment (Fer (mouse)) | phosphorylation enrichment (Fes) | phosphorylation enrichment (Fyn) | phosphorylation enrichment (Hck) | phosphorylation enrichment (Jak2) | phosphorylation enrichment (MERTK) | phosphorylation enrichment (c-Abl (mouse)) | phosphorylation enrichment (c-Src) | SH2 binding enrichment (Grb2 SH2) | SH2 binding enrichment (SHP2-C SH2) | SH2 binding enrichment (c-Src SH2) |
| --- | --- | --- | --- | --- | --- | --- | --- | --- | --- | --- | --- | --- | --- | --- | --- | --- |
| FGVVGYLAIVF [RNF175_Y155_M159V] | 1.4 | 0.811 | 0.691 | 0.559 | 1.14 | 0.649 | 1.94 | 0.452 | 0.557 | 1.65 | 0.498 | 1.1 | 0.457 | 1.06 | 1.12 | 0.662 |
| QWRTKYETDAI [MYH7_Y1375] | 0.971 | 0.663 | 0.432 | 0.4 | 0.624 | 0.543 | 1.36 | 0.643 | 0.355 | 1.74 | 0.545 | 1.04 | 0.528 | 0.849 | 0.521 | 0.542 |
| LCRFGYANTSE [SI_Y1233_YF] | 0.756 | 0.454 | 0.529 | 0.455 | 0.581 | 0.381 | 0.893 | 0.419 | 0.422 | 0.706 | 0.423 | 0.625 | 0.405 | 1.47 | 0.881 | 0.877 |
| PFNAEYGGGGG [AKR1B10_Y316] | 1.19 | 1.35 | 0.693 | 1.06 | 0.802 | 0.871 | 1.49 | 1.14 | 1.66 | 0.627 | 0.879 | 0.43 | 0.285 | 0.554 | 0.417 | 0.379 |
| QFLMKYVWSAP [ABCD1_Y337_S342P] | 1.68 | 0.834 | 0.738 | 0.634 | 1.03 | 0.836 | 1.63 | 0.562 | 0.674 | 1.34 | 0.61 | 0.749 | 0.429 | 0.941 | 0.653 | 0.595 |
| SNKELYEKFMI | 0.859 | 0.571 | 0.539 | 0.507 | 0.543 | 10.2 | 0.872 | 1.14 | 1.45 | 0.894 | 1.51 | 0.559 | 1.78 | 0.79 | 0.705 | 0.526 |
| HLTNQYMQRVA [PABPC4_Y382] | 0.525 | 0.307 | 0.316 | 0.402 | 0.33 | 0.446 | 0.429 | 0.356 | 0.324 | 0.406 | 0.277 | 1.04 | 0.351 | 1.01 | 0.929 | 0.473 |
| QSGGQYSSQGL [TNNI3K_Y788_A785G] | 0.655 | 0.506 | 0.434 | 0.486 | 0.854 | 0.401 | 0.779 | 0.488 | 0.72 | 0.835 | 0.4 | 0.676 | 0.495 | 0.787 | 0.446 | 0.577 |
| RSSKRYLKTRS [LPL_Y329_M328R] | 1.4 | 0.919 | 1.11 | 1.03 | 1.11 | 0.852 | 1.17 | 0.937 | 0.894 | 0.725 | 1.24 | 1.03 | 0.713 | 0.628 | 0.58 | 0.504 |
| GPKFVYDEIDN [ACOX1_Y232_G231V] | 1.1 | 0.505 | 0.556 | 0.482 | 0.57 | 0.409 | 1.04 | 0.537 | 0.467 | 0.92 | 0.413 | 0.652 | 0.514 | 0.709 | 0.653 | 24.5 |
| FNNFGYGSDGF [HNRNPH3_Y161_N163S_YF] | 0.856 | 0.527 | 0.592 | 0.499 | 0.593 | 0.455 | 0.962 | 0.442 | 0.57 | 0.829 | 0.455 | 0.727 | 0.453 | 0.823 | 0.685 | 0.386 |
| LSSEMYVKSFT [F5_Y2149_YF] | 1.35 | 0.609 | 0.788 | 1.15 | 0.975 | 0.837 | 1.27 | 0.647 | 0.933 | 0.965 | 0.641 | 0.684 | 0.307 | 0.676 | 0.708 | 0.364 |
| SENPKCPEVGD [TMEM43_Y233_Y233C] | 0.971 | 0.492 | 0.49 | 0.487 | 0.595 | 0.467 | 1.08 | 0.441 | 0.487 | 0.807 | 0.461 | 1.24 | 0.471 | 0.959 | 0.922 | 0.682 |
| TNFRFYLRSLE [MTM1_Y71_L70F_YF] | 1.3 | 0.66 | 0.611 | 0.548 | 0.964 | 0.558 | 1.64 | 0.397 | 0.633 | 1.57 | 0.381 | 0.931 | 0.455 | 0.772 | 0.89 | 0.536 |
| SVKVFYKKCWF [EPHA7_Y202_S207F_YF] | 1.06 | 0.782 | 0.518 | 0.533 | 0.833 | 0.544 | 1.23 | 0.568 | 0.513 | 1.01 | 0.425 | 0.816 | 0.478 | 0.764 | 0.765 | 0.441 |
| AYGGGYGGVLT [KRT19_Y65] | 0.583 | 0.461 | 0.458 | 0.456 | 0.645 | 0.477 | 0.574 | 0.442 | 0.605 | 0.485 | 0.372 | 0.485 | 0.573 | 0.623 | 0.614 | 0.401 |

Source: the supplement of paper PMC10065799, “High-throughput profiling of sequence recognition by tyrosine kinases and SH2 domains using bacterial peptide display” (eLife, 2023)
